In the supplement of paper PMC10126150:
± gives the standard deviation of the averaged measurements.

System: ATP
Assay: switch fluorescence ratio, 500 uM ATP over buffer (Cy3 cluster intensity, sum of 5 cycles each) (fold (ratio)); higher = stronger signal-on switching upon ATP binding; sequences stand for … in TCGTCGGCAGCGTCAGATGTGTATAAGAGACAGTTTTTTTTTTTTTTTTTTTTTTTTT…TC
Settings: aptamer strand: ATP DNA aptamer (quencher-CACCTGGGGGAGTATTGCGGAGGAAGG + anchor), 100 nM annealed; ATP concentration: 500 uM
How it was run: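 The quencher-labelled ATP aptamer, at 100 nM, was annealed to Cy3-labelled switching-strand clusters on a modified Illumina MiSeq flow-cell. The clusters were imaged in selection buffer, then after 15 min with 500 uM ATP at 22 °C, and this buffer/ATP cycle ran five times with NaOH stripping and re-annealing between runs. Per-cluster fluorescence ratios, summed target-cycle over summed buffer-cycle Cy3 intensity, were averaged per switch-domain sequence. Clusters outside 100-1000 RFU were excluded.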
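Also: ATP exposure 15 min at 22 °C before imaging.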

Sequence	switch fluorescence ratio
TTTTAATGAG	0.9774 ± 0.00031
TTTTAATGTT	1 ± 0.046
TTTTAATTAG	1.01 ± 0.018
TTTTAATTCC	1.02 ± 0.038
TTTTAATTGG	1.01 ± 0.066
TTTTAATTTG	0.994 ± 0.04
TTTTACAAGA	0.996 ± 0.043
TTTTACACAT	1.025 ± 0.0057
TTTTACAGCA	1.04 ± 0.03
TTTTACAGTA	1.07 ± 0.022
TTTTACATTT	1 ± 0.057
TTTTACCCAG	1.11 ± 0.012
TTTTACCCGC	1.11 ± 0.078
TTTTACCCGG	1.04 ± 0.029
TTTTACGACA	1.15 ± 0.014
TTTTACGCCG	1.09 ± 0.041
TTTTACGCTT	1.04 ± 0.017
TTTTACGGTT	1.03 ± 0.069
TTTTACGTAG	1.09 ± 0.035
TTTTACTATT	0.996 ± 0.041
TTTTAGAAA	1.02 ± 0.07
TTTTAGAGGT	0.96 ± 0.033
TTTTAGCCAG	1.01 ± 0.032
TTTTAGGAGA	1.02 ± 0.026
TTTTAGGCCT	1.045 ± 0.0027
TTTTAGGCTC	1.03 ± 0.039

Sequence	switch fluorescence ratio
TTTTAGGGCG	0.976 ± 0.048
TTTTAGGTAC	1.021 ± 0.0019
TTTTAGGTTC	1.01 ± 0.018
TTTTAGTACA	1 ± 0.048
TTTTAGTATA	1.02 ± 0.045
TTTTAGTATG	1 ± 0.02
TTTTAGTGCT	1.006 ± 0.0065
TTTTAGTTGT	0.994 ± 0.032
TTTTATACCA	1.04 ± 0.039
TTTTATACGG	0.9874 ± 0.0087
TTTTATAGAC	1.04 ± 0.026
TTTTATCATG	0.9758 ± 0.0028
TTTTATGTTG	1.01 ± 0.04
TTTTATTATT	0.967 ± 0.01
TTTTATTCGT	1.01 ± 0.025
TTTTATTGCG	0.995 ± 0.011
TTTTCAAATA	1.01 ± 0.061
TTTTCAAATT	1.01 ± 0.028
TTTTCAATGA	0.994 ± 0.041
TTTTCAGCAA	2.59 ± 1
TTTTCAGGAG	1.03 ± 0.016
TTTTCATGAG	1.01 ± 0.012
TTTTCATTAT	1.046 ± 0.0066
TTTTCATTCA	1.023 ± 0.0072
TTTTCATTTT	1.05 ± 0.11
TTTTCCACGA	1.3 ± 0.35

Sequence	switch fluorescence ratio
TTTTCCAGTT	0.998 ± 0.029
TTTTCCGCCC	3.08 ± 2.9
TTTTCCGCTT	1.55 ± 0.69
TTTTCGAAAA	1.03 ± 0.075
TTTTCGATCT	1 ± 0.013
TTTTCGCCGA	1.03 ± 0.057
TTTTCGGCCC	1.01 ± 0.026
TTTTCGTGCA	1.03 ± 0.046
TTTTCTACAG	1 ± 0.022
TTTTCTCACG	1.12 ± 0.11
TTTTCTGTCC	1.03 ± 0.012
TTTTCTGTCG	1.06 ± 0.063
TTTTCTGTTT	0.996 ± 0.047
TTTTCTTAGA	0.977 ± 0.029
TTTTCTTAGT	0.974 ± 0.021
TTTTCTTATG	0.96 ± 0.013
TTTTCTTGGG	1.03 ± 0.071
TTTTCTTTT	1.02 ± 0.024
TTTTCTTTTC	1.09 ± 0.084
TTTTCTTTTG	1 ± 0.024
TTTTGAAAAG	1.01 ± 0.019
TTTTGAAATG	0.965 ± 0.017
TTTTGAACCA	1.05 ± 0.057
TTTTGAAGGG	1 ± 0.021
TTTTGACCGT	0.973 ± 0.037
TTTTGACGTG	0.991 ± 0.013

Sequence	switch fluorescence ratio
TTTTGACTTA	1.04 ± 0.034
TTTTGAGATG	0.999 ± 0.024
TTTTGAGCAT	1.07 ± 0.12
TTTTGAGCTG	1.02 ± 0.029
TTTTGAGGTC	0.986 ± 0.064
TTTTGATACT	1.0096 ± 0.00024
TTTTGATGG	0.995 ± 0.036
TTTTGATTAA	1.02 ± 0.041
TTTTGATTAG	1.006 ± 0.0015
TTTTGATTGT	1.01 ± 0.055
TTTTGCAATT	1.98 ± 1.3
TTTTGCACGG	1.04 ± 0.0077
TTTTGCGAAA	1.55 ± 0.9
TTTTGCGGGG	1.08 ± 0.15
TTTTGGAATT	1.04 ± 0.16
TTTTGGACCT	1.3 ± 0.0093
TTTTGGAGTA	1.02 ± 0.047
TTTTGGATCT	0.982 ± 0.023
TTTTGGATGT	0.984 ± 0.048
TTTTGGCGGG	0.983 ± 0.022
TTTTGGCGGT	0.971 ± 0.055
TTTTGGGGAC	0.988 ± 0.043
TTTTGGGGGA	0.999 ± 0.04
TTTTGGGGTC	1.02 ± 0.023
TTTTGGGTAC	0.995 ± 0.04
TTTTGGGTGC	1.08 ± 0.089

Sequence	switch fluorescence ratio
TTTTGGTAAA	1 ± 0.038
TTTTGGTAGG	1.02 ± 0.02
TTTTGGTCAT	0.962 ± 0.053
TTTTGGTCTC	0.985 ± 0.036
TTTTGGTGCG	0.986 ± 0.041
TTTTGGTTTA	1 ± 0.011
TTTTGTACAA	1.04 ± 0.059
TTTTGTACGG	1.01 ± 0.018
TTTTGTAGGT	0.973 ± 0.056
TTTTGTGAAT	0.9561 ± 0.0045
TTTTGTGGGC	1.01 ± 0.055
TTTTGTTACT	1.01 ± 0.026
TTTTGTTAGC	1.01 ± 0.03
TTTTGTTATA	0.9783 ± 0.0036
TTTTGTTGGT	1 ± 0.028
TTTTGTTGTC	0.984 ± 0.037
TTTTGTTTAG	0.992 ± 0.021
TTTTGTTTGG	1.02 ± 0.041
TTTTTAAAAT	1.08 ± 0.22
TTTTTAAACA	1.01 ± 0.068
TTTTTAAACG	0.995 ± 0.014
TTTTTAAATA	0.986 ± 0.023
TTTTTAAATC	1 ± 0.044
TTTTTAACAG	0.997 ± 0.021
TTTTTAAGCT	1.02 ± 0.019
TTTTTAATCA	0.987 ± 0.014

Sequence	switch fluorescence ratio
TTTTTAATGG	1.01 ± 0.034
TTTTTAATTT	0.993 ± 0.023
TTTTTACAGG	1.13 ± 0.16
TTTTTACGAG	0.988 ± 0.045
TTTTTACGTG	0.969 ± 0.035
TTTTTACTCG	0.9965 ± 0.005
TTTTTAGATT	1.02 ± 0.031
TTTTTAGCAT	1.04 ± 0.084
TTTTTAGCCC	1.02 ± 0.053
TTTTTAGGCA	1 ± 0.042
TTTTTAGGCG	0.978 ± 0.028
TTTTTAGTTA	0.981 ± 0.01
TTTTTAGTTC	0.98 ± 0.027
TTTTTATAAA	1.01 ± 0.039
TTTTTATAAC	1 ± 0.031
TTTTTATACG	0.984 ± 0.072
TTTTTATAGT	1.02 ± 0.022
TTTTTATCTT	1.03 ± 0.046
TTTTTATGGT	0.984 ± 0.027
TTTTTCAATG	0.979 ± 0.042
TTTTTCCATA	1 ± 0.022
TTTTTCCCAT	1.03 ± 0.014
TTTTTCCCCC	1.04 ± 0.05
